Data from PMC5777972 (Protein & Cell, 2017).
Blank lines part the entries; values can stand above or below the binder they belong to.

Experiments:
[1] = target: T1, PD-L1 extracellular domain fragment (from F19 to R238) (Homo sapiens, UniProt Q9NZQ7); experiment: SPR; BIAcore T100, CM5 chip, about 1000 RU of PD-L1 immobilised, scFv flowed at 5 nM to 80 nM, 25 °C, HBS-EP (150 mM NaCl, 10 mM HEPES, pH 7.4, 0.005% Tween-20), 1:1 Langmuir model; conditions: both partners purified
T1 construct: PD-L1 extracellular domain fragment, F19 to R238; probably the start methionine of the E. coli construct (surmise); also called two-Ig-domain PD-L1
T1 sequence (Q9NZQ7 19-238): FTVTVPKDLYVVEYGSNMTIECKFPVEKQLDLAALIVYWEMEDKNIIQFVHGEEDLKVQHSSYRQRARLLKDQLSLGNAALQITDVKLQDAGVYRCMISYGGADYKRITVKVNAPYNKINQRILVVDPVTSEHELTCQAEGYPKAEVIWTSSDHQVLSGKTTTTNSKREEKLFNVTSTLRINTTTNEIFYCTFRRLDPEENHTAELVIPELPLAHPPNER

two-Ig-domain PD-L1 = target: T2, two-Ig-domain PD-L1 (Homo sapiens, UniProt Q9NZQ7); experiment: SPR; PD-L1 protein immobilised on the chip, scFvs of the anti-PD-L1 MAbs flowed through; BIAcore T100; conditions: both partners purified
T2 construct: PD-L1, the two Ig domains (IgV and the second Ig domain)
T2 sequence (Q9NZQ7 19-238): as above

koff [1]: 7.53e-05 s⁻¹
kon [1]: 1.61e+06 M⁻¹ s⁻¹
B1: avelumab-scFv (scFv, V domains shown)
VH: EVQLLESGGGLVQPGGSLRLSCAASGFTFSSYIMMWVRQAPGKGLEWVSSIYPSGGITFYADTVKGRFTISRDNSKNTLYLQMNSLRAEDTAVYYCARIKLGTVTTVDYWGQGTLVTVSS
VL: QSALTQPASVSGSPGQSITISCTGTSSDVGGYNYVSWYQQHPGKAPKLMIYDVSNRPSGVSNRFSGSKSGNTASLTISGLQAEDEADYYCSSYTSSSTRVFGTGTKVTVL
notes: VL of avelumab; avelumab-scFv 'obtained as durvalumab-scFv'; VH of avelumab; Order VL-linker-VH is stated for durvalumab-scFv only; also called avalumab-scFv

Kd (two-Ig-domain PD-L1): 0.0467 nM
B2: scFv of avelumab (scFv, V domains shown)
VH: B1 VH
VL: B1 VL
notes: VH and VL of avelumab as in the cited complex with PD-L1, PDB 5GRJ; The parent antibody is IgG1; the scFv was used for SPR; Its preparation may be told in the supplementary information
